Measured values published in US20250304640A1 (ORIKINE BIO SL, published 2025).
Like-named read-outs stand apart in the source and are kept apart here.

What was measured:
Assay in all cases: cell-based or functional assay
[1] = molecular target: T1, IL-10 receptor (IL-10R: IL10RA and IL10RB) on HEK-Blue IL-10 reporter cells (UniProt Q13651 22-578; Q08334 20-325, limits assumed)
T1 sequence (looked up) 1: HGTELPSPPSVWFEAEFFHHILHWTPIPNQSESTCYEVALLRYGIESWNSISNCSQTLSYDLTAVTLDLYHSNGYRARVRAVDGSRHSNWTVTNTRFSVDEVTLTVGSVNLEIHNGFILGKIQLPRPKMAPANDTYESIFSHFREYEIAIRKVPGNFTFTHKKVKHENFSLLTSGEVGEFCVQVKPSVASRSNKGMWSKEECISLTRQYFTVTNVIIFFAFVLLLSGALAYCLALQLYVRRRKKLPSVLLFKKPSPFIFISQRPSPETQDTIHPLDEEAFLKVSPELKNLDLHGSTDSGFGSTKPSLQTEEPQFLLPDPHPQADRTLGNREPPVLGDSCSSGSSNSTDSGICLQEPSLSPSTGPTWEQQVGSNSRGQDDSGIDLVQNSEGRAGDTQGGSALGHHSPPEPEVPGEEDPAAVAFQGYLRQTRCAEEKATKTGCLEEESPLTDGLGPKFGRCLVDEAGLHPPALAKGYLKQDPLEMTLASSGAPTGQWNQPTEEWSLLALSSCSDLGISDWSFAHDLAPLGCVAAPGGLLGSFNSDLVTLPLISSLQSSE
T1 sequence (looked up) 2: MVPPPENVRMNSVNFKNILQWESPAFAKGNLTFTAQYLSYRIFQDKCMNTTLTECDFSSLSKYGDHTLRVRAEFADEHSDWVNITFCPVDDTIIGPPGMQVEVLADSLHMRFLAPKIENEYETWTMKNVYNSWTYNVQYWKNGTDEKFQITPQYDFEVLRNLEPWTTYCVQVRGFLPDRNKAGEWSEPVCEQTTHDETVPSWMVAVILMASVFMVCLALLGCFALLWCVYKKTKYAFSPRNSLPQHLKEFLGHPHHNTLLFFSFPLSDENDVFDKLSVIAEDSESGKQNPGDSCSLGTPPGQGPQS

[2] = molecular target: T1, IL-10 receptor (IL-10R: IL10RA and …); remark: listed apart in the source
CSF1 receptor (CSF1R) = CSF1 receptor (CSF1R) (UniProt P07333 20-972, limits assumed)
Sequence of CSF1 receptor (CSF1R) (P07333 20-972 limits assumed): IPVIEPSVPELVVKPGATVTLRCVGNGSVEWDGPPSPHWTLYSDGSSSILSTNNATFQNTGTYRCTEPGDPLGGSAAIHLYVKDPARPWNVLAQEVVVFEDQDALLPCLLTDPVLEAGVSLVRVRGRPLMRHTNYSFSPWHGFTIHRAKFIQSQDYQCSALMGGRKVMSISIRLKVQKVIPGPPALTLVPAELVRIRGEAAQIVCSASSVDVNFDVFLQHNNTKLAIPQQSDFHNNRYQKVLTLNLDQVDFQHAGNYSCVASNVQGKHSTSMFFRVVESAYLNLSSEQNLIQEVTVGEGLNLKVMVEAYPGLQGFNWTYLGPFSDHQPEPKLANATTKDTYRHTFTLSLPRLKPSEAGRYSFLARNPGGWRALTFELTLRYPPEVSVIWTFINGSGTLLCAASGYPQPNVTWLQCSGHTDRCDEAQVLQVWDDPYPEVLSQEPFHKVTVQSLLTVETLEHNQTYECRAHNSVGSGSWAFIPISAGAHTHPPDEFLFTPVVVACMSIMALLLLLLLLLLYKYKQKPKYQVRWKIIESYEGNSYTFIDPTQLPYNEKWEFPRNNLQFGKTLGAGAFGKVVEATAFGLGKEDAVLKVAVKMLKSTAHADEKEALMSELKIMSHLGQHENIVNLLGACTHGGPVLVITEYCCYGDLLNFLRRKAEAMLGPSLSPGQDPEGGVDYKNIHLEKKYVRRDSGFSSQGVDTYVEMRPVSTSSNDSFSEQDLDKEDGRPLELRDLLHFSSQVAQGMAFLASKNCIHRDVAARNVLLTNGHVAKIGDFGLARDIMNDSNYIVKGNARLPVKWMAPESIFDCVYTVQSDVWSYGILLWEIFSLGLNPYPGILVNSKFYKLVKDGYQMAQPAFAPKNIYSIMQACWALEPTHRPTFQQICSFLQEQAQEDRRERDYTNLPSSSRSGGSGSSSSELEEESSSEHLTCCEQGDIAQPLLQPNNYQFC

IL10RB = molecular target: T2, IL10RB (UniProt Q08334 20-325, limits assumed)
T2 sequence (looked up): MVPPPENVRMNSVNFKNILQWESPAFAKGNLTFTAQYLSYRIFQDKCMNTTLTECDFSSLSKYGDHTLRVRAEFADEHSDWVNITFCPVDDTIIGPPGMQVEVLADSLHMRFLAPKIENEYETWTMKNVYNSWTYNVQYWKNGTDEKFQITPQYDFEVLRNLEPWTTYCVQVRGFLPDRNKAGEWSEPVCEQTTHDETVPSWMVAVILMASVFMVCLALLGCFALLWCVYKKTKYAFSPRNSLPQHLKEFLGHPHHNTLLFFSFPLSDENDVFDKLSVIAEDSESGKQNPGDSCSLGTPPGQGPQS

IL10RA = molecular target: T3, IL10RA (UniProt Q13651 22-578, limits assumed)
T3 sequence (looked up): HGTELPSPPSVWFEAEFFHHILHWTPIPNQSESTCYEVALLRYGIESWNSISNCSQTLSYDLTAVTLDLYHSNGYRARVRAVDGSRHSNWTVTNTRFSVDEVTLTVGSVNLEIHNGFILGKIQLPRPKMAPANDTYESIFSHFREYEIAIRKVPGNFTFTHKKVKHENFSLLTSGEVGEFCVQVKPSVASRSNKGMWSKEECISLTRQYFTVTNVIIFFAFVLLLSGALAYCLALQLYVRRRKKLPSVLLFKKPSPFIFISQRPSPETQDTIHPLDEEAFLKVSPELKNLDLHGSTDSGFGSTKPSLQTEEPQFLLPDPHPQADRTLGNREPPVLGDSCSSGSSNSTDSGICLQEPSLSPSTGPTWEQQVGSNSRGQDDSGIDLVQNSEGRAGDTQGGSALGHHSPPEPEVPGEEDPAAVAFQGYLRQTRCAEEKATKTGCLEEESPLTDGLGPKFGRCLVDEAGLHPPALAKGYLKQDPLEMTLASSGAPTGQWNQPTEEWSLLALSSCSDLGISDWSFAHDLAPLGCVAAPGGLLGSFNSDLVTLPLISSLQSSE

B1: CSF1-Foldikine10_cut116-HiBit (ligand)
chain: EEVSEYCSHMIGSGHLQSLQRLIDSQMETSCQITFEFVDQEQLKDPVCYLKKAFLLVQDIMEDTMRFRDNTPNAIAIVQLQELSLRLKSCFTKDYEEHDKACVRTFYETPLQLLEKVKNVFNETKNLLDKDWNIFSKNCNNSFAECSSQDGGGGGSGGSGGSGGSGGSGGSGGSGGSGGGMTQSENSCTHFPGNLPNMLRDLRDAFSRVKTFFQMKDQLDNLLLKESLLEDFKGYLGCQALSEMIQFYLEEVMPQAENQEPDIKAHVNSLGENLKTLRLRLRRCHRFLPCENKSKAVEQVKNAFNKLQEKGIYKAMSEFDIFINYIEAYMTMNNGGLDYLPNMLRDLRDAFSRVKTFFQMKDQLDNLLLKESLLEDFKGYLGCQALSEMIQFYLEEVMPQAENQDPDIKAHVNSLGENLKTLRLRLRRNHRFLPCENKSKAVEQVKNAFNKLQEKGIYKAMSEFDIFINYIEAYMTMKIRNGGVSGWRLFKKIS
- IL-10 EC-50, HEK-Blue IL-10 reporter cells [1]: 3.06e-10

B2: IL-10-CSF1-HiBit (ligand)
chain: SPGQGTQSENSCTHFPGNLPNMLRDLRDAFSRVKTFFQMKDQLDNLLLKESLLEDFKGYLGCQALSEMIQFYLEEVMPQAENQDPDIKAHVNSLGENLKTLRLRLRRCHRFLPCENKSKAVEQVKNAFNKLQEKGIYKAMSEFDIFINYIEAYMTMKIRNGGGGGSGGSGGSGGSGGSGGSGGSGGSGGGEEVSEYCSHMIGSGHLQSLQRLIDSQMETSCQITFEFVDQEQLKDPVCYLKKAFLLVQDIMEDTMRFRDNTPNAIAIVQLQELSLRLKSCFTKDYEEHDKACVRTFYETPLQLLEKVKNVFNETKNLLDKDWNIFSKNCNNSFAECSSQDGGVSGWRLFKKIS
- IL-10 EC-50, HEK-Blue IL-10 reporter cells [2]: 5.9e-09
- CSF1 EC-50, HEK293 CSF1R/SRE reporter (CSF1 receptor (CSF1R)): 4.64e-09

B3: ORK10-003-HiBit (ligand)
chain: MTQSENSCTHFPGNLPNMLRDLRDAFSRVKTFFQMKDQLDNLLLKESLLEDFKGYLGCQALSEMIQFYLEEVMPQAENQDPDIKAHVNSLGENLKTLRLRLRRCHRFLPCENKSKAVEQVKNAFNKLQEKGIYKAMSEFDIFINYIEAYLYKTITPEFANMLRDLRDAFSRVKTFFQMKDQLDNLLLKESLLEDFKGYLGCQALSEMIQFYLEEVMPQAENQDPDIKAHVNSLGENLKTLRLRLRRCHRFLPCENKSKAVEQVKNAFNKLQEKGIYKAMSEFDIFINYIEAYMTMGGVSGWRLFKKIS
- EC-50, HEK-Blue IL-10 reporter cells (IL10RB): 9.53e-11
- EC-50, HEK-Blue IL-10 reporter cells (IL10RA): 9.44e-11

B4: ORK10-003-HiBit N92E (ligand)
chain: MTQSENSCTHFPGNLPNMLRDLRDAFSRVKTFFQMKDQLDNLLLKESLLEDFKGYLGCQALSEMIQFYLEEVMPQAENQDPDIKAHVNSLGENLKTLRLRLRRCHRFLPCENKSKAVEQVKNAFNKLQEKGIYKAMSEFDIFINYIEAYLYKTITPEFANMLRDLRDAFSRVKTFFQMKDQLDNLLLKESLLEDFKGYLGCQALSEMIQFYLEEVMPQAENQDPDIKAHVESLGENLKTLRLRLRRCHRFLPCENKSKAVEQVKNAFNKLQEKGIYKAMSEFDIFINYIEAYMTMGGVSGWRLFKKIS
- EC-50, HEK-Blue IL-10 reporter cells (IL10RB): 1.19e-10

B5: Foldikine10_cut116 (ligand)
chain: NKSKAVEQVKNAFNKLQEKGIYKAMSEFDIFINYIEAYMTMNNGGLDYLPNMLRDLRDAFSRVKTFFQMKDQLDNLLLKESLLEDFKGYLGCQALSEMIQFYLEEVMPQAENQDPDIKAHVNSLGENLKTLRLRLRRNHRFLPCENKSKAVEQVKNAFNKLQEKGIYKAMSEFDIFINYIEAYMTMNNGGLDYLPNMLRDLRDAFSRVKTFFQMKDQLDNLLLKESLLEDFKGYLGCQALSEMIQFYLEEVMPQAENQDPDIKAHVNSLGENLKTLRLRLRRNHRFLPCE
- IL-10 EC-50, HEK-Blue IL-10 reporter cells [1]: 2.41e-10

B6: Foldikine10_cut116-CSF1-HiBit (ligand)
chain: NKSKAVEQVKNAFNKLQEKGIYKAMSEFDIFINYIEAYMTMNNGGLDYLPNMLRDLRDAFSRVKTFFQMKDQLDNLLLKESLLEDFKGYLGCQALSEMIQFYLEEVMPQAENQDPDIKAHVNSLGENLKTLRLRLRRNHRFLPCENKSKAVEQVKNAFNKLQEKGIYKAMSEFDIFINYIEAYMTMNNGGLDYLPNMLRDLRDAFSRVKTFFQMKDQLDNLLLKESLLEDFKGYLGCQALSEMIQFYLEEVMPQAENQDPDIKAHVNSLGENLKTLRLRLRRNHRFLPCEGGGGGSGGSGGSGGSGGSGGSGGSGGSGGGEEVSEYCSHMIGSGHLQSLQRLIDSQMETSCQITFEFVDQEQLKDPVCYLKKAFLLVQDIMEDTMRFRDNTPNAIAIVQLQELSLRLKSCFTKDYEEHDKACVRTFYETPLQLLEKVKNVFNETKNLLDKDWNIFSKNCNNSFAECSSQDGGGVSGWRLFKKIS
- IL-10 EC-50, HEK-Blue IL-10 reporter cells [1]: 4.95e-10

B7: Foldikine10-CSF1-HiBit (ligand)
chain: MTQSENSCTHFPGNLPNMLRDLRDAFSRVKTFFQMKDQLDNLLLKESLLEDFKGYLGCQALSEMIQFYLEEVMPQAENQEPDIKAHVNSLGENLKTLRLRLRRCHRFLPCENKSKAVEQVKNAFNKLQEKGIYKAMSEFDIFINYIEAYMTMNNGGLDYLPNMLRDLRDAFSRVKTFFQMKDQLDNLLLKESLLEDFKGYLGCQALSEMIQFYLEEVMPQAENQDPDIKAHVNSLGENLKTLRLRLRRNHRFLPCENKSKAVEQVKNAFNKLQEKGIYKAMSEFDIFINYIEAYMTMKIRNGGGGGSGGSGGSGGSGGSGGSGGSGGSGGGEEVSEYCSHMIGSGHLQSLQRLIDSQMETSCQITFEFVDQEQLKDPVCYLKKAFLLVQDIMEDTMRFRDNTPNAIAIVQLQELSLRLKSCFTKDYEEHDKACVRTFYETPLQLLEKVKNVFNETKNLLDKDWNIFSKNCNNSFAECSSQDGGVSGWRLFKKIS
- IL-10 EC-50, HEK-Blue IL-10 reporter cells [2]: 1.36e-09
- CSF1 EC-50, HEK293 CSF1R/SRE reporter (CSF1 receptor (CSF1R)): 3.18e-09
